± gives the uncertainty stated by the source.
B1: Serine/threonine-protein kinase A-Raf, residues 21 to 89; numbered along this chain, P10398 (parent)
chain: VKVYLPNKQRTVVTVRDGMSVYDSLDKALKVRGLNQDCCVVYRLIKGRKTVTAWDTAIAPLDGEELIVE

Variants of: B1
Assay: abundance fitness (aPCA) (normalised: wild type 0, dead -1); higher = more abundant; growth selection in yeast, the domain comes from the species named
Settings: Homo sapiens
VKVYLPNKQRTVVTVRDGMSVYDSLDKALKVRGLNQDCCVVYRLIKGRKTVTAWTTAIAPLDGEELIVE [D55T] showed an abundance fitness of -0.335 ± 0.053.
Variant VKVYLPNKQRTVVTVRDGMSVYDSLDKALKVRGLNQDCCVVYRLIKGRKTVTAWNTAIAPLDGEELIVE [D55N] has an abundance fitness of -0.098 ± 0.06.
VKVYLPNKQRTVVTVRDGMSVYDSLDKALKVRGLNQDCCVVYRLIKGRKTVTAWQTAIAPLDGEELIVE [D55Q] showed an abundance fitness of -0.024 ± 0.045.
Work on VKVYLPNKQRTVVTVRDGMSVYDSLDKALKVRGLNQDCCVVYRLIKGRKTVTAWDHAIAPLDGEELIVE [T56H] yielded an abundance fitness of -0.151 ± 0.086.
For VKVYLPNKQRTVVTVRDGMSVYDSLDKALKVRGLNQDCCVVYRLIKGRKTVTAWDPAIAPLDGEELIVE [T56P], the abundance fitness was -0.614 ± 0.11.
Variant VKVYLPNKQRTVVTVRDGMSVYDSLDKALKVRGLNQDCCVVYRLIKGRKTVTAWDSAIAPLDGEELIVE [T56S] has an abundance fitness of -0.009 ± 0.038.
Variant VKVYLPNKQRTVVTVRDGMSVYDSLDKALKVRGLNQDCCVVYRLIKGRKTVTAWDIAIAPLDGEELIVE [T56I] has an abundance fitness of -0.47 ± 0.099.
With VKVYLPNKQRTVVTVRDGMSVYDSLDKALKVRGLNQDCCVVYRLIKGRKTVTAWDLAIAPLDGEELIVE [T56L] the abundance fitness was -0.253 ± 0.031.
VKVYLPNKQRTVVTVRDGMSVYDSLDKALKVRGLNQDCCVVYRLIKGRKTVTAWDNAIAPLDGEELIVE [T56N] showed an abundance fitness of -0.278 ± 0.3.
For VKVYLPNKQRTVVTVRDGMSVYDSLDKALKVRGLNQDCCVVYRLIKGRKTVTAWDVAIAPLDGEELIVE [T56V], the abundance fitness was -0.235 ± 0.034.
Variant VKVYLPNKQRTVVTVRDGMSVYDSLDKALKVRGLNQDCCVVYRLIKGRKTVTAWDEAIAPLDGEELIVE [T56E] has an abundance fitness of 0.106 ± 0.037.
For VKVYLPNKQRTVVTVRDGMSVYDSLDKALKVRGLNQDCCVVYRLIKGRKTVTAWDMAIAPLDGEELIVE [T56M], the abundance fitness was -0.095 ± 0.039.
With VKVYLPNKQRTVVTVRDGMSVYDSLDKALKVRGLNQDCCVVYRLIKGRKTVTAWDGAIAPLDGEELIVE [T56G] the abundance fitness was -0.21 ± 0.052.
With VKVYLPNKQRTVVTVRDGMSVYDSLDKALKVRGLNQDCCVVYRLIKGRKTVTAWDCAIAPLDGEELIVE [T56C] the abundance fitness was -0.09 ± 0.085.
VKVYLPNKQRTVVTVRDGMSVYDSLDKALKVRGLNQDCCVVYRLIKGRKTVTAWDRAIAPLDGEELIVE [T56R] showed an abundance fitness of -0.276 ± 0.029.
In the case of VKVYLPNKQRTVVTVRDGMSVYDSLDKALKVRGLNQDCCVVYRLIKGRKTVTAWDYAIAPLDGEELIVE [T56Y], the abundance fitness is reported as -0.225 ± 0.075.
For VKVYLPNKQRTVVTVRDGMSVYDSLDKALKVRGLNQDCCVVYRLIKGRKTVTAWDAAIAPLDGEELIVE [T56A], the abundance fitness was 0.021 ± 0.047.
For VKVYLPNKQRTVVTVRDGMSVYDSLDKALKVRGLNQDCCVVYRLIKGRKTVTAWDKAIAPLDGEELIVE [T56K], the abundance fitness was -0.153 ± 0.049.
For VKVYLPNKQRTVVTVRDGMSVYDSLDKALKVRGLNQDCCVVYRLIKGRKTVTAWDFAIAPLDGEELIVE [T56F], the abundance fitness was -0.693 ± 0.17.
In the case of VKVYLPNKQRTVVTVRDGMSVYDSLDKALKVRGLNQDCCVVYRLIKGRKTVTAWDDAIAPLDGEELIVE [T56D], the abundance fitness is reported as -0.069 ± 0.069.
Variant VKVYLPNKQRTVVTVRDGMSVYDSLDKALKVRGLNQDCCVVYRLIKGRKTVTAWDTAIAPDDGEELIVE [L61D] has an abundance fitness of -0.365 ± 0.23.
VKVYLPNKQRTVVTVRDGMSVYDSLDKALKVRGLNQDCCVVYRLIKGRKTVTAWDTAIAPEDGEELIVE [L61E] gave an abundance fitness of -0.25 ± 0.087.
With VKVYLPNKQRTVVTVRDGMSVYDSLDKALKVRGLNQDCCVVYRLIKGRKTVTAWDTAIAPADGEELIVE [L61A] the abundance fitness was -0.168 ± 0.072.
Work on VKVYLPNKQRTVVTVRDGMSVYDSLDKALKVRGLNQDCCVVYRLIKGRKTVTAWDTAIAPCDGEELIVE [L61C] yielded an abundance fitness of -0.367 ± 0.31.
Work on VKVYLPNKQRTVVTVRDGMSVYDSLDKALKVRGLNQDCCVVYRLIKGRKTVTAWDTAMAPLDGEELIVE [I58M] yielded an abundance fitness of -0.004 ± 0.065.
For VKVYLPNKQRTVVTVRDGMSVYDSLDKALKVRGLNQDCCVVYRLIKGRKTVTAWDTAKAPLDGEELIVE [I58K], the abundance fitness was -0.86 ± 0.21.
VKVYLPNKQRTVVTVRDGMSVYDSLDKALKVRGLNQDCCVVYRLIKGRKTVTAWDTAQAPLDGEELIVE [I58Q] showed an abundance fitness of -0.952 ± 0.2.
Work on VKVYLPNKQRTVVTVRDGMSVYDSLDKALKVRGLNQDCCVVYRLIKGRKTVTAWDTAYAPLDGEELIVE [I58Y] yielded an abundance fitness of 0.146 ± 0.088.
VKVYLPNKQRTVVTVRDGMSVYDSLDKALKVRGLNQDCCVVYRLIKGRKTVTAWDTAGAPLDGEELIVE [I58G] showed an abundance fitness of -0.725 ± 0.094.
VKVYLPNKQRTVVTVRDGMSVYDSLDKALKVRGLNQDCCVVYRLIKGRKTVTAWDTATAPLDGEELIVE [I58T] gave an abundance fitness of -0.729 ± 0.097.
VKVYLPNKQRTVVTVRDGMSVYDSLDKALKVRGLNQDCCVVYRLIKGRKTVTAWDTAFAPLDGEELIVE [I58F] gave an abundance fitness of -0.021 ± 0.12.
In the case of VKVYLPNKQRTVVTVRDGMSVYDSLDKALKVRGLNQDCCVVYRLIKGRKTVTAWDTALAPLDGEELIVE [I58L], the abundance fitness is reported as -0.015 ± 0.039.
VKVYLPNKQRTVVTVRDGMSVYDSLDKALKVRGLNQDCCVVYRLIKGRKTVTAWDTAAAPLDGEELIVE [I58A] showed an abundance fitness of -0.201 ± 0.085.
VKVYLPNKQRTVVTVRDGMSVYDSLDKALKVRGLNQDCCVVYRLIKGRKTVTAWDTASAPLDGEELIVE [I58S] gave an abundance fitness of -0.278 ± 0.068.
With VKVYLPNKQRTVVTVRDGMSVYDSLDKALKVRGLNQDCCVVYRLIKGRKTVTAWDTANAPLDGEELIVE [I58N] the abundance fitness was -0.858 ± 0.45.
In the case of VKVYLPNKQRTVVTVRDGMSVYDSLDKALKVRGLNQDCCVVYRLIKGRKTVTAWDTAPAPLDGEELIVE [I58P], the abundance fitness is reported as -0.872 ± 0.21.
For VKVYLPNKQRTVVTVRDGMSVYDSLDKALKVRGLNQDCCVVYRLIKGRKTVTAWDTAVAPLDGEELIVE [I58V], the abundance fitness was -0.185 ± 0.049.
With VKVYLPNKQRTVVTVRDGMSVYDSLDKALKVRGLNQDCCVVYRLIKGRKTVTAWDTADAPLDGEELIVE [I58D] the abundance fitness was -0.881 ± 0.34.
VKVYLPNKQRTVVTVRDGMSVYDSLDKALKVRGLNQDCCVVYRLIKGRKTVTAWDTACAPLDGEELIVE [I58C] gave an abundance fitness of -0.001 ± 0.083.
